From EP1034789A1

Key:
[1] = biological target: cellular receptors of MIP-1α on primary human monocytes and THP-1 cells (human); experiment: 125I-MIP-1α bound to THP-1 cells, Exp. 3, no inhibitor
[2] = biological target: cellular receptors of MIP-1α on primary human monocytes and THP-1 cells (human); experiment: 125I-MIP-1α bound to human monocytic cells, Exp. 1, no inhibitor
[3] = biological target: cellular receptors of MIP-1α on primary human monocytes and THP-1 cells (human); experiment: 125I-MIP-1α bound to primary human monocytes, Exp. 1, no inhibitor
[4] = biological target: cellular receptors of MIP-1α on primary human monocytes and THP-1 cells (human); experiment: 125I-MIP-1α bound to primary human monocytes, Exp. 2, no inhibitor
[5] = biological target: cellular receptors of MIP-1α on primary human monocytes and THP-1 cells (human); experiment: 125I-MIP-1α bound to THP-1 cells, Exp. 3, 6500X excess unlabeled MIP-1α (background control)
[6] = biological target: cellular receptors of MIP-1α on primary human monocytes and THP-1 cells (human); experiment: 125I-MIP-1α bound to primary human monocytes, Exp. 1, 6500X excess unlabeled MIP-1α (background control)
[7] = biological target: cellular receptors of MIP-1α on primary human monocytes and THP-1 cells (human); experiment: 125I-MIP-1α bound to primary human monocytes, Exp. 2, 6500X excess unlabeled MIP-1α (background control)
[8] = biological target: cellular receptors of MIP-1α on primary human monocytes and THP-1 cells (human); experiment: 125I-MIP-1α bound to human monocytic cells, Exp. 1, 6500X molar excess unlabeled MIP-1α (background control)
[9] = biological target: cellular receptor of fMLP (human); experiment: 3H-fMLP bound to cells, Exp. 1, no inhibitor
[10] = biological target: cellular receptor of fMLP (human); experiment: 3H-fMLP bound to cells, Exp. 1, with unlabeled fMLP

Surface Bound fMLP [9]	Surface Bound fMLP [10]	Substance	Surface Bound MIP-1α [1]	Surface Bound MIP-1α [2]	Surface Bound MIP-1α [3]	Surface Bound MIP-1α [4]	Surface Bound MIP-1α [5]	Surface Bound MIP-1α [6]	Surface Bound MIP-1α [7]	Surface Bound MIP-1α [8]
		human MIP-1α (from UniProt P10147 24-92) (ligand)	9940 cpm	12200 cpm	4700 cpm	7710 cpm	1040 cpm	470 cpm	410 cpm	444 cpm
374 cpm	132 cpm	fMLP (peptide)								
